Results published in paper doi:10.1101/2025.08.25.672131, “A basic leucine zipper uses a dimer pathway to locate its targets in DNA mixtures”.

T1: CREB-bZIP-ΔLZ (human, UniProt P16220-1 277-315, C300S;C310S)
T1 chain: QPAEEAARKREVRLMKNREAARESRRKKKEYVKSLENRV

T2: Jun bZIP-ΔLZ (human, UniProt P05412 246-284)
T2 chain: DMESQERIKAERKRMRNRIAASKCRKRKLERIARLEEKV


Tests used:
CREB-bZIP-ΔLZ = target: T1, CREB-bZIP-ΔLZ; assay: fluorescence anisotropy; monomer; Stopped-flow at 25 C; assay buffer not stated in the material (protein storage: 10 mM MES pH 6.5 or, for the forced-monomer bZIP-ΔLZ prep, 10 mM HEPES pH 7.4, with 150 mM NaCl, 10 mM MgCl2; 0.05% Tween-20 in the MES buffer); settings: protein: recombinant; tags: N-terminal G left after TEV cleavage; label: 5' Alexa Fluor 488; blunt
Jun bZIP-ΔLZ = target: T2, Jun bZIP-ΔLZ; assay: as above; settings: protein: recombinant; tags: N-terminal G left after TEV cleavage; label: 5' Alexa Fluor 488; blunt

Binder | Kd (CREB-bZIP-ΔLZ) | Kd (Jun bZIP-ΔLZ)
Alexa Fluor 488-Comp (dsDNA) DNA 1: GGCTAAAGCATTCT DNA 2: AGAATGCTTTAGCC | 440 ± 30 µM | 
Alexa Fluor 488 target for Jun, JunD, Fos (dsDNA) DNA 1: GGATGAGTCATTGG DNA 2: CCAATGACTCATCC |  | 0.22 ± 0.03 µM
